Test results published in article PMC5467231 (2017).

T1: recombinant human FGFR1/Fc chimera (Sino Biological 10616-H03H) (human, UniProt P11362 22-376)
T1 chain: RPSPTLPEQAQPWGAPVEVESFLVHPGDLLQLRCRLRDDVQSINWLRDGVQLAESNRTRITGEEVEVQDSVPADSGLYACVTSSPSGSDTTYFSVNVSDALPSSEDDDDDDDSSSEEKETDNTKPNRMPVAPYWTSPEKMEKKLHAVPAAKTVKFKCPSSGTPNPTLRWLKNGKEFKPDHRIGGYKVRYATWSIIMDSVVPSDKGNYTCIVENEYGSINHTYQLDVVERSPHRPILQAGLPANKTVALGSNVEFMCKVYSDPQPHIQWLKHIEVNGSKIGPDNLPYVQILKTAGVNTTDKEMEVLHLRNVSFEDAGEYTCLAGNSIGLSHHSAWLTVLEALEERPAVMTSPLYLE

B1: recombinant FGF8a (R&D Systems 4745-F8-050) (ligand)
chain: QHVREQSLVTDQLSRRLIRTYQLYSRTSGKHVQVLANKRINAMAEDGDPFAKLIVETDTFGSRVRVRGAETGLYICMNKKGKLIAKSNGKGKDCVFTEIVLENNYTALQNAKYEGWYMAFTRKGRPRKGSKTRQHQREVHFMKRLPRGHHTTEQSLRFEFLNYPPFTRSLRGSQRTWAPEPR
B2: recombinant FGF4 (Peprotech AF-100-31) (ligand)
chain: APTAPNGTLEAELERRWESLVALSLARLPVAAQPKEAAVQSGAGDYLLGIKRLRRLYCNVGIGFHLQALPDGRIGGAHADTRDSLLELSPVERGVVSIFGVASRFFVAMSSKGKLYGSPFFTDECTFKEILLPNNYNAYESYKYPGMFIALSKNGKTKKGNRVSPTMKVTHFLPRL

Legend:
[1] = target: recombinant human FGFR2/Fc chimera (Sino Biological 10824-H03H) (human, UniProt P21802 22-377); assay: SPR
recombinant human FGFR2/Fc chimera (Sino Biological 10824-H03H), sequence (P21802 22-377): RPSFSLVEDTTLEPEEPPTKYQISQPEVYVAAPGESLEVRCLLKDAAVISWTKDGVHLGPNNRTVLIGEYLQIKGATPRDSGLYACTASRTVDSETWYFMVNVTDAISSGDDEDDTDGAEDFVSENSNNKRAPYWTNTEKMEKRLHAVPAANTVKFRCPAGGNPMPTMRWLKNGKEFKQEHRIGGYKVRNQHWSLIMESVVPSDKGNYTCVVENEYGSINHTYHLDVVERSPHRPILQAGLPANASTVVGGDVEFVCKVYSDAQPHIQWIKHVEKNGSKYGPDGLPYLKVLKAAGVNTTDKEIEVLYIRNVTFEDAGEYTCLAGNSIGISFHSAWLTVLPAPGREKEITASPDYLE

[2] = target: T1, recombinant human FGFR1/Fc chimera …; assay: SPR

Binder | Kd [1] | Kd [2]
B1 | 0.0315 µM | 0.0392 µM
B2 | 0.00694 µM | 0.00361 µM
